The results in this text go back to US10967068B2, “Stability-modulating linkers for use with antibody drug conjugates” (priority 2014, dated 2021).

Read-outs that look alike come from different tables or passages of the source. *1 amine or outer side, *2 acyl side, *3 side chain or, on linkers, in order; H or OH if unused. Where a SMILES comes first, the peptide text is derived from it. [ ]: non-standard residue; d: D form. The star is where a group is joined. Dolaproine = CO[C@@H]([C@@H]1CCCN1)[C@@H](C)C(=O)O; Dil = CC[C@H](C)[C@H](NC)[C@@H](CC(=O)O)OC; PABC = O=C(OCc1ccc(N[*:1])cc1)[*:2]; Doe = c1ccc(C[C@H](N*)c2nccs2)cc1; Cit = NC(=O)NCCC[C@H](N)C(=O)O; X1 = NCCOCCOCCOCCOCCOCC*; Aib = CC(C)(N)C(=O)O

One data set addresses T1, mouse plasma enzyme (Mus musculus, UniProt P23953).
T1 construct: 100-200 ug of ADC were incubated in mouse plasma (provided by Bioreclamation); tissue Bioreclamation; host or cells: mouse plasma
T1 sequence (P23953 19-554): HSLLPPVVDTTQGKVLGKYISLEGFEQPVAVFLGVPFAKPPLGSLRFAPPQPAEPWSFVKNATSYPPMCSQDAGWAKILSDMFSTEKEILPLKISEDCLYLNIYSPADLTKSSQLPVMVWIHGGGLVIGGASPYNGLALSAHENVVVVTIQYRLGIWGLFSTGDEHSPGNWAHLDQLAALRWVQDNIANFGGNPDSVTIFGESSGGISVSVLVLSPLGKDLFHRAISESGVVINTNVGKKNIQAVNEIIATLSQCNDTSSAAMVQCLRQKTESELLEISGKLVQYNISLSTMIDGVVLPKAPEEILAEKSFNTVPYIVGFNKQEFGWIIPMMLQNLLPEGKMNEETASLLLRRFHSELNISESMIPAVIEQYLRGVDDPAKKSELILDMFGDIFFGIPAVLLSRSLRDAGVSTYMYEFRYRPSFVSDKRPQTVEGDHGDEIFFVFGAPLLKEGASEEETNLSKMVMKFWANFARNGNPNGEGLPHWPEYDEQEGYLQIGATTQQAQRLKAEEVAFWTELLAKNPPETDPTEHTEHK
Type of data set: biochemical. The text has this:
First, Balb/c serum (BioreclamationIVT) was depleted of IgG and albumin using commercially available MabSelect Protein A and Protein G resins (GE Healthcare), followed by Qproteome Murine Albumin Depletion Kit (Qiagen). The depleted serum was then subjected to sequential precipitation with ammonium sulfate. Fractions with the highest linker hydrolase activity were then applied to cation exchange HiTrap SP column (GE Healthcare) using step gradient elutions with sodium chloride. After that, SP fractions with the highest activity were applied to anion exchange HiTrap Q column (GE Healthcare) using step gradient elutions with sodium chloride. Fractions with the highest hydrolase activity were then combined and size fractionated using Superdex 200 column (GE Healthcare). […] To verify the correct identification of mouse Carboxylesterase 1C as the plasma enzyme responsible for linker cleavage, the recombinant protein was expressed in Expi 293 cells, and purified using a HIS tag following standard protocols.

A short description of data set [1]: In Vitro Stability Assay—Mouse Plasma. The data set is classed as in vitro ADME. The settings on record: for Conjugate stability (%): % DAR remaining after plasma 3 or 4.5 days; for DAR: before plasma incubation.
Experimental: 100-200 ug of ADC were incubated in mouse plasma (provided by Bioreclamation) supplemented with 1×PBS to the final ADC concentration of 0.125 mg/mL. Following incubation for 3-7 days, samples were diluted with an equal volume of 1×PBS, and ADCs were isolated using Trop2 antigen coupled to CNBr-activated Sepharose (GE Healthcare) using standard protocols. Drug-antibody ratios were assessed before and after in vitro exposure using HIC methods and mass spectrometry.
DAR values for conjugates purified after plasma incubation were compared to DAR values prior to plasma treatment.
The nature of data set [2]: Stability in SCID mouse plasma of linker-payloads conjugated to Combo_Rd4_0.6nM_C29 anti-BCMA antibody. The settings on record: LCQ05 tag. Type of data set: in vitro ADME.
[3] abbreviates: Trop-2 antibody attachment position TG6, HIC or mass spectrometry.

With `O=[N+]([O-])c1ccc(OP(=O)(O)Oc2ccc([N+](=O)[O-])cc2)cc1` [BNPP], at mouse plasma enzyme, the “inhibition of the mouse plasma enzyme (linker cleavage)” value is “inhibited”.
For `CC[C@H](C)[C@@H]([C@@H](CC(=O)N1CCC[C@H]1[C@H](OC)[C@@H](C)C(=O)N[C@@H](Cc1ccccc1)c1nccs1)OC)N(C)C(=O)[C@@H](NC(=O)C(C)(C)NC(=O)OCc1ccc(NC(=O)[C@H](CCCNC(N)=O)NC(=O)[C@@H](NC(=O)[C@H](COCCOCCOCCOCCOCCOCCN)NC(C)=O)C(C)C)cc1)C(C)C` [Example 48, N-acetyl-O-(17-amino-3,6,9,12,15-pentaoxaheptadec-1-yl)-L-seryl-L-valyl-N-{4-[(8S,11S,12R)-11-[(2S)-butan-2-yl]-12-(2-{(2S)-2-[(1R,2R)-1-methoxy-2-methyl-3-oxo-3-{[(1S)-2-phenyl-1-(1,3-thiazol-2-yl)ethyl]amino}propyl]pyrrolidin-1-yl}-2-oxoethyl)-5,5,10-trimethyl-3,6,9-trioxo-8-(propan-2-yl)-2,13-dioxa-4,7,10-triazatetradec-1-yl]phenyl}-N˜5˜-carbamoylornithinamide] (Ac-S(X1)V[Cit][PABC][Aib]V[Dil][Dolaproine]-Doe), in data set [1] (attachment position L11B), the “DAR after plasma incubation for 3 to 4.5 days” value is recorded as 0, the “Conjugate stability (%)” value is 0% and the DAR turned out to be 1.94.
`Cl.NCCc1ccc(S(=O)(=O)F)cc1` [Pefabloc]: on mouse plasma enzyme (1 mM, in vitro stability assay with anti-Trop2 L11B C6 vc0101 conjugate as substrate), the “inhibition of the mouse plasma enzyme (linker cleavage)” value is “inhibited”.
For “Ac-Lys-Val-Cit-PABC-0101 [reference compound]”, in data set [1] (attachment position H16), the “DAR after plasma incubation for 3 to 4.5 days” value is recorded as 1.96, the “Conjugate stability (%)” value came to 100% and the DAR is 1.94. For the same compound, the DAR in data set [2] (Combo_Rd4_0.6nM_C29 anti-BCMA antibody, before incubation, HIC) is listed as 2.0. Besides, the “Conjugate stability (%)” value in data set [2] (anti-BCMA antibody, % DAR remaining after SCID mouse plasma 4.5 days) was found to be 99%. Besides, in data set [2] (anti-BCMA antibody, SCID mouse plasma), the “DAR after plasma incubation for 4.5 days” value is listed as 1.98.
Regarding “AcLys-vc0101 [Example 11, reference compound]”, the DAR in data set [1] (attachment position H7C) came to 1.90; in data set [1] (attachment position H8A), 1.82; in data set [1] (attachment position H10), 1.62; in data set [1] (attachment position L11B), 1.87; in data set [1] (attachment position LCQ04) it was 1.88.
For “AcLys-vcMMAD [Example 9, reference compound]”, the DAR in data set [1] (setting [3]) stood at 1.97.
Turning to “C6vc0101 [Example 10, reference compound]”, the DAR in data set [1] (setting [3]) is listed as 1.98; in data set [1] (attachment position H7C), 1.52; in data set [1] (attachment position H8A), 1.78; in data set [1] (attachment position H10), 1.72; in data set [1] (attachment position H16), 2.00; in data set [1] (attachment position L11B), 1.88. Also, the DAR in data set [1] (attachment position LCQ04) is 1.90; in data set [1] (attachment position N297A) it was 1.89; in data set [1] (attachment position N297Q), 3.94.
